{"source": "paper doi:10.1101/2021.06.08.447555", "about": "(bioRxiv, 2021)", "proteins": {"B1": {"name": "His6-eVP40 (Ebola virus matrix protein VP40) (natural protein)", "chain": "MRRVILPTAPPEYMEAIYPVRSNSTIARGGNSNTGFLTPESVNGDTPSNPLRPIADDTIDHASHTPGSVSSAFILEAMVNVISGPKVLMKQIPIWLPLGVADQKTYSFDSTTAAIMLASYTITHFGKATNPLVRVNRLGPGIPDHPLRLLRIGNQAFLQEFVLPPVQLPQYFTFDLTALKLITQPLPAATWTDDTPTGSNGALRPGISFHPKLRPILLPNKSGKKGNSADLTSPEKIQAIMTSLQDFKIVPIDPTKNIMGIEVPETLVHKLTGKKVTSKNGQPIIPVLLPKYIGLDPVAPGDLTMVITQDCDTCHSPASLPAVIEK"}}, "target": "the molecule itself", "assay": "SEC"}
{"protein": "B1", "values": [{"measurement": "stoichiometry N", "result": 2}]}
